# Measured values from US20170066817A1.
# B1: anti-PrPc mAb-5 (monoclonal antibody Ab-5) (antibody, V domains shown)
# VH: EVQLQQSGPELVKPGASVKMSCKASGYTFTDYYMKWVKQSHGKSLEWIGDINPNNGDTFYNQKFKGKATLTVDKSSNTAYMQLNSLTSEDSAVYYCAKPGRTYWGQGTLVTVSAAKTTAPSVYPLAPVCGGSRP
# VL: DIVLTQSPASLAVSLGQRATISYRASKSVSTSGYSYMHWNQQKPGQPPRLLIYLVSNLESGVPARFSGSGSGTDFTLNIHPVEEEDAATYYCQHIRELTRSEGGPSWK
# Assays:
# [1] = molecular target: human cellular prion protein (human); assay: cell-based or functional assay
# [2] = molecular target: GST-PrPc (β1α1) protein (human); assay: Biacore (SPR), ratio of affinities
# [3] = molecular target: GST-PrPc (β1α1) protein (human); assay: Biacore (SPR), soluble GST-PrPc (β1α1) at several concentrations
binder,measurement,setting,value
B1,"Migrated cell number, HCT116 cells (transwell, antibody 10 µg/mL, 24 h)",[1],192 cells
same,"Migrated cell number, MDA-MB-231 cells (transwell, antibody 10 µg/mL, 24 h)",[1],695 cells
same,"Migrated cell number, SW480 cells (transwell, antibody 10 µg/mL, 24 h)",[1],111 cells
same,fold affinity against 12F10,[2],5.38 times
same,fold affinity against Ab-3,[2],1.87 times
same,Kd,[3],3.05 nM
